Data taken from the supplement of paper PMC12042874.
± gives the uncertainty stated by the source.

Assay: amyloid nucleation score (Sup35N fusion, yeast selection) (log enrichment); library NNK2; higher = more nucleation; inactive = no reads after selection
Method in brief: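 In psi-negative yeast, Sup35N fusions carrying peptides of 20 random codons were induced with 100 μM copper sulfate for 24 hours. The cells then grew 7 days at 30°C on medium lacking adenine and uracil, and plasmid inserts from input and output were Illumina-sequenced, excluding sequences with under 100 input reads. Nucleation score is the DiMSum log enrichment of output over input reads, centred on the mode score of non-aggregating sequences.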

| Substance | amyloid nucleation score |
| --- | --- |
| FCPRGFTLSSKFLCLNSLRM | -0.344 ± 0.33 |
| FCSSFEEYICLNYVIRSEWM | 3.82 ± 0.095 |
| FCVIPIKGQRSLHIPVQLFG | -1.07 ± 0.76 |
| FDGRETQENGNSYMCEGW | 0.419 ± 0.5 |
| FDVESMSNDLMAQWHKMLAC | -0.452 ± 0.48 |
| FDVVIGMFVNLITRSKCGEW | 1.61 ± 0.53 |
| FDWNVDDYTFIYDN | -2.38 ± 0.75 |
| FDWQRLMG | 0.196 ± 0.64 |
| FEACVTGMLSDRF | -0.871 ± 0.41 |
| FEFSPQSRCTGFLSVVCMVE | 0.042 ± 0.5 |
| FESTAGTDKLRTEHLDPFAD | inactive |
| FEYNRF | 0.691 ± 0.8 |
| FFCGMRPYVLVNCLCVFREN | 6.374 ± 0.029 |
| FFFFTNRVTKAVSYGYLMDD | -0.491 ± 0.63 |
| FFGICDVYSDMNFPIYTAY | inactive |
| FFGLFFNFLLMLINLPKCIV | -1.78 ± 0.75 |
| FFLAPKGKTSYGRGN | inactive |
| FFMLYYGYLLSVRDSCSLCI | -0.017 ± 0.76 |
| FFMPKGTLRSIGSLFR | -1.65 ± 1.1 |
| FFQGSVSLCFQASHQWSFLI | 3.06 ± 0.11 |
| FFRGDVQYWRLILKYLCLLM | -1.28 ± 0.49 |
| FFRVRPFISYYWHTLLSVLW | -1.24 ± 1.1 |

| Substance | amyloid nucleation score |
| --- | --- |
| FFSDVIRFWNKHTCKINLLR | -1.33 ± 1 |
| FFSNRNCLE | -1.34 ± 0.64 |
| FFSRFERPLQCNIFKL | 4.13 ± 0.12 |
| FFSRTKYDSSRLKPWGMDIS | 0.523 ± 0.64 |
| FFSVSNDHPSFFPANVGEVH | 1.74 ± 0.25 |
| FFTLVVTVLPRRFYRFNYR | 0.043 ± 1 |
| FFVKNASSSFFLLKRLSWT | -0.59 ± 1.1 |
| FFWNAGCSELFGEGHYNSLL | inactive |
| FFWYWYASYEHARTSYSIRV | inactive |
| FGAFVYWVFSIAYTLSRGSR | -1.03 ± 0.6 |
| FGDSDRMRAGRLWFMWSLVA | 0.639 ± 0.35 |
| FGESTSEGYA | 3.33 ± 0.12 |
| FGFIYGTRVEGLSIVSRQSR | 2.36 ± 0.14 |
| FGISSNATRDWRLFDHRAVG | 0.637 ± 0.47 |
| FGKVRESCCLLAY | 0.489 ± 0.3 |
| FGLMLRTS | 0.062 ± 0.41 |
| FGLSITECGWVVLCMVWVPR | 0.246 ± 0.17 |
| FGLVHRIPRFVLWILSLGSG | -0.012 ± 1.1 |
| FGLYRVRGRSEYRVDHTGWG | 0.534 ± 0.51 |
| FGMFM | -0.228 ± 0.32 |
| FGNALA | -1.15 ± 0.61 |
| FGNVMMTDAV | -0.631 ± 0.46 |

| Substance | amyloid nucleation score |
| --- | --- |
| FGQIRCWYTMICYGQDIGFT | 6.37 ± 0.047 |
| FGRRYIMLRKYIDVIDLSIH | -0.843 ± 0.76 |
| FGSIHGGRDEGPFLLGSSNV | -0.675 ± 1.1 |
| FGVRDDILDSWCCTVCFSGK | 0.369 ± 0.65 |
| FGYYQLYNDQGGYYPMSSAS | inactive |
| FHEDRERGTIFDEFMIFRN | -0.945 ± 0.76 |
| FHINAFISTWFSDNFCFCDY | 1.31 ± 0.22 |
| FHIQTRCMCGGMRYIFYVWY | 0.432 ± 0.8 |
| FHPPTGPPYINEMIGASTDR | -0.069 ± 0.27 |
| FHPVWSLRKLFDCPDWTLAR | 1.23 ± 0.12 |
| FHYRFFVVMIRGCSFWHFQL | -1.57 ± 0.49 |
| FIAGLS | -0.734 ± 0.76 |
| FICYNTRRVVCIYLRL | 0.456 ± 0.74 |
| FIDPGHFTLDLGCSPPESEV | 4.5 ± 0.085 |
| FIDVHMEYRDKTRCWLVLVL | -0.891 ± 0.78 |
| FIEHT | -0.716 ± 0.45 |
| FIIDWSVKFGICSICLAT | 5.448 ± 0.042 |
| FILDAVGNFFCFVRHTTPQV | 0.106 ± 1 |
| FILQQAYGDWFTVDSNSCIM | -1.64 ± 1.1 |
| FILVYTRPTLESLGEWWIRC | -0.628 ± 0.63 |
| FIMCSDYPYHITPYPWLGPG | -0.59 ± 0.37 |
| FINCSHQCHSIGIRVLLNCR | 0.915 ± 0.19 |

| Substance | amyloid nucleation score |
| --- | --- |
| FIPYKYAVHSS | 0.166 ± 0.62 |
| FISHIYLNESQQKSSALNTL | -1.32 ± 0.53 |
| FISNYLMPV | 2.1 ± 0.12 |
| FISRVMVSGVLTGLAWPM | 0.151 ± 0.43 |
| FISSMGRVW | -1 ± 0.55 |
| FITHKDYLFAGQ | -1.16 ± 0.76 |
| FITNFGACRYCCRWHM | 6.184 ± 0.042 |
| FIVCALIKEHILTYPGKVFV | inactive |
| FIYCVTFVDDCRYVINLRGT | 7.964 ± 0.079 |
| FIYQFHVVFLVCQGHNNLYT | 3.6 ± 0.071 |
| FKFTWRTFESNNLMVRVWLL | -1.29 ± 0.55 |
| FKFYSRSAYSHHRFSIYCDR | -1.22 ± 1.1 |
| FKILCFSHGNNRM | 2.07 ± 0.19 |
| FKLFMLSSFSLMM | 0.182 ± 1.1 |
| FKNQGDLQTCLLFD | -0.012 ± 0.79 |
| FKPLGTTEGIYTPVMYSYRG | -0.6 ± 0.27 |
| FKVLVSLALSRECS | -0.75 ± 0.48 |
| FLDAFFFGWDVVVRVYSSAP | -0.153 ± 1.1 |
| FLEFLDTMWW | -0.233 ± 0.56 |
